The test system of one test is LIGHT. The test can be described thus: expression levels of LIGHT in motoneurons exposed to IFNγ. It counts as cell-based, mouse. As for the experimental part: Neurons were plated at the density of 20,000 cells/cm^2 in 6-cm diameter dishes containing corresponding complemented Neurobasal medium (see above). Sodium dodecyl sulfate polyacrylamide gel electrophoresis (SDS-PAGE) and Western blotting were carried out on neurons, astrocytes (duplicates) and dissected lumbar spinal cords using protocol previously described in Raoul et al., 2005, above. Primary antibodies were anti-LT-βR (sc-8377, Santa Cruz Biotechnology, 1:500), anti-LIGHT (sc-28880, Santa Cruz Biotechnology, 1:500), anti-IFNγ (sc-52557, Santa Cruz Biotechnology, 1:500), anti-IFNγR1 (559911, BD Biosciences, 1:500), anti-IFNγR2 (ab31606, Abcam, 1:2000), anti-α-tubulin (B-5-1-2, Sigma-Aldrich, 1:20,000), anti-actin (AC-40, Sigma-Aldrich, 1:20,000). Proteins were detected using horseradish peroxidase (HRP)-conjugated secondary antibodies and visualized with the chemiluminescent HRP substrate (Millipore). Where indicated, immunoblot images were quantified and normalized relative to the α-tubulin or actin levels using the NIH ImageJ software.

Test [1] has as its system corresponding recombinant ligand (recombinant soluble LIGHT and IFNγ). The test can be described thus: immunoprecipitation of ligand-receptor complex from conditioned media of transduced glioma cell lines. The format is binding. The conditions noted are these: anti-HA immunoprecipitation, immunoblot. How it is done:
The constructs were checked by sequencing. The efficacy of IFNγR1-COMP, DcR3-COMP, Fas-COMP, and COMP to be efficiently secreted by astrocytes and to specifically interact with their respective ligands were evaluated in vitro by immunoprecipitation assays. Glioma cell lines were transduced with vectors encoding IFNγR1-COMP, DcR3-COMP, Fas-COMP, or COMP and conditioned media collected. Recombinant soluble LIGHT and IFNγ were added to different conditioned media. Immunoprecipitation of ligand-receptor complex were performed using anti-hemagglutinin (HA) tag antibody, since these constructs include an HA tag at their C-terminus, and immunocomplexes analysed by SDS-PAGE followed by immunoblotting with antibodies to LIGHT, IFNγR1 and IFNγ.
(In western blotting, separated proteins are transferred to a membrane and probed.)

In test [2] the test system is sFasL-induced death of motoneurons. The test can be described thus: AAV-delivered COMP chimeric receptors: rescue of motoneurons from sFasL-induced death. The format is cell-based, mice. The settings on record: AAV vectors; sFasL 50 ng/ml; survival 48 h later. How it is done: (§1) FIG. 7 evidences the efficiency of recombinant proteins IFNγR1-COMP, DcR3-COMP, and Fas-COMP (in the form of AAV viral vectors at 1.5×10^5 TU/ml), to interfere with death induced by their respective ligand(s) or cytokine (sFasL (50 ng/ml), sLight (50 ng/ml), IFNγ (250 ng/ml)), in contrast to the negative control (COMP). Cell survival was determined 48 h later as described in Example 4. All values are expressed as the means±S.D of three independent experiments.
(§2) The functionality of the dominant negatives in inhibiting Fas and LIGHT/IFNγ-induced death was evaluated in an isolated motoneurons culture system as described in Example 2. Embryonic motoneurons isolated from spinal cords of E12.5 CD1 mice were cultured for 6 h and then infected with 50 TU/ml of indicated with AAV-IFNγR1-COMP, AAV-DcR3-COMP, AAV-Fas-COMP, or AAV-COMP viral vectors. After 6 h of incubation the culture medium was replaced and motoneurons were treated 48 h later (when indicated) with effective doses of either sFasL (50 ng/ml), sLight (50 ng/ml) or IFNγ (250 ng/ml). Forty-eight hours later, survival was determined by direct counting of motoneurons (FIG. 7). […] On the other hand, IFNγ-triggered death was blocked by IFNγR1-COMP.

Test [3] has as its system sLIGHT-induced death of motoneurons. The test can be described thus: AAV-delivered COMP chimeric receptors: rescue of motoneurons from sLIGHT-induced death. The format is cell-based, mice. The conditions noted are these: AAV vectors; sLight 50 ng/ml; survival 48 h later. As for the experimental part:
as §1, §2

Test [4] deals with IFNγ-triggered death of motoneurons. The test can be described thus: AAV-delivered COMP chimeric receptors: rescue of motoneurons from IFNγ-triggered death. It counts as cell-based, mice. The conditions noted are these: AAV vectors; IFNγ 250 ng/ml; survival 48 h later. As for the experimental part: as §1, §2

B1: IFNγ: Soluble mouse recombinant IFNγ (Calbiochem; PBL Biomedical laboratories) (protein, UniProt P01580 23-155, looked up)
Interferon gamma: HGTVIESLESLNNYFNSSGIDVEEKSLFLDIWRNWQKDGDMKILQSQIISFYLRLFEVLKDNQAISNNISVIESHLITTFFSNSKAKKDAFMSIAKFEVNNPQVQRQAFNELIRVVHQLLPESSLRKRKRSRC
Take B1: the “expression levels of LIGHT” value in the test on LIGHT is “significantly enhancing”. Further, the “cell-type restriction of the synergistic lethal effect of IFNγ on LIGHT-induced death” value with motoneurons (compared with cortical, hippocampal, sensory and striatal neurons) is on record as “restricted to motoneurons”. For the same molecule, the death of motoneurons entry in the test with motoneurons (cultured motoneurons, survival 48 h after treatment) is “about 50%”. In addition, the “effect on sFasL-induced death” value in the test with motoneurons (motoneurons) is listed as “no effect”. Moreover, the “effect on LIGHT killing effect” value in the test on motoneurons (suboptimal dose of sLIGHT and increasing doses of IFNγ) is “substantially enhances”. Moreover, the “responsiveness of freshly isolated motoneurons to sLIGHT or agonistic anti-LT-βR antibodies” value in the test on motoneurons (treated at 0, 24 or 72 h, IFNγ combined with sLIGHT or anti-LT-βR antibodies) is “responsive to sLIGHT or agonistic anti-LT-βR antibodies”.

B2: DcR3-COMP: Extracellular part of DcR3 fused to COMP (SEQ ID NO: 17), decoy for both FasL and LIGHT, AAV-expressed (protein)
chain: MRALEGPGLSLLCLVLALPALLPVPAVRGVAETPTYPWRDAETGERLVCAQCPPGTFVQRPCRRDSPTTCGPCPPRHYTQFWNYLERCRYCNVLCGEREEEARACHATHNRACRCRTGFFAHAGFCLEHASCPPGAGVIAPGTPSQNTQCQPCPPGTFSASSSSSEQCQPHRNCTALGLALNVPGSSSHDTLCTSCTGFPLSTRVPGAEECERAVIDFVAFQDISIKRLQRLLQALEAPEGWGPTPRAGRAALQLKLRRRLTELLGAQDGALLVRLLQALRVARMPGLERSVRERFLPVHPQPQPKPQPKPEPEGDLAPQMLRELQETNAALQDVRELLRHRVKEITFLKNTVMECDACGYPYDVPDYA
modifications: AAV-expressed; Sequence for chimeric protein DcR3-COMP
On to B2, for which the “interaction with corresponding recombinant ligand (immunoprecipitation)” value in test [1] was “effectively interact”. The “rescue of motoneurons from sFasL-induced death” value in test [2] is reported as “rescued”. The “rescue of motoneurons from sLIGHT-induced death” value in test [3] is on record as “rescued”.

B3: IFNγR1-COMP: Extracellular part of IFNγR1 fused to COMP, HA-tagged (SEQ ID NO: 15), expressed from AAV vector (protein)
chain: MGPQAAAGRMILLVVLMLSAKVGSGALTSTEDPEPPSVPVPTNVLIKSYNLNPVVCWEYQNMSQTPIFTVQVKVYSGSWTDSCTNISDHCCNIYGQIMYPDVSAWARVKAKVGQKESDYARSKEFLMCLKGKVGPPGLEIRRKKEEQLSVLVFHPEVVVNGESQGTMFGDGSTCYTFDYTVYVEHNRSGEILHTKHTVEKEECNETLCELNISVSTLDSRYCISVDGISSFWQVRTEKSKDVCIPPFHDDRKERPQPQPQPKPQPKPEPEGDLAPQMLRELQETNAALQDVRELLRHRVKEITFLKNTVMECDACGYPYDVPDYA
modifications: HA tag; AAV-expressed; amino acid sequence of mouse IFN gamma R1-cartilage oligomeric matrix protein chimera
For B3, in test [1], the “interaction with corresponding recombinant ligand (immunoprecipitation)” value is recorded as “effectively interact”. Moreover, the “rescue of motoneurons from IFNγ-triggered death” value in test [4] is recorded as “blocked”.

B4: COMP: negative control generated by deleting approximately 80% of the extra-cellular part of Fas (secreted COMP) (protein)
chain: PQPQPKPQPKPEPEGDLAPQMLRELQETNAALQDVRELLRHRVKEITFLKNTVMECDACGYPYDVPDYA
modifications: amino acid sequence of a coiled-coil domain of cartilage oligomeric matrix protein
As for B4, in test [2], the “rescue of motoneurons from sFasL-induced death” value is listed as “did not interfere”. In addition, the “rescue of motoneurons from sLIGHT-induced death” value in test [3] was “did not interfere”. Moreover, the “rescue of motoneurons from IFNγ-triggered death” value in test [4] is on record as “did not interfere”.
